The assay addresses hemagglutinin of influenza B virus (B/Brisbane/60/2008 BX-35) (Influenza B virus B/Brisbane/60/2008 BX-35). Put plainly: cell-based or functional assay.

B1: CR11039 (antibody, V domains shown)
VH: EVQLVQSGAEVKKPGESVKISCKTSGYAFTGYGISWVRQAPGQGLEWMGWINTYKFNTNYAQNLQGRVTMTIDTSTSAAYMELRSLRYEDTAVYFCARDWAGPFGNAFDVWGQGTMVTVSS
VL: IQMTQSPSSLSASIGDRVAITCQASQDISDYLNWYQQQPGKAPKLLLYGASNLETGVPSRFSGSGSGTDFTFTISSLQPEDIATYYCQQYGNLPPTFGGGTKLEIK
On to B1, for which the neutralizing capacity in MDCK cell culture, Experiment 5, CPE, undiluted virus was > 0.4 µg/mL and the neutralizing capacity in MDCK cell culture, Experiment 6, CPE, undiluted virus was > 0.8 µg/mL.

For the origin of these results see patent US20160304586A1.
